Assay: yeast display, Sf9 membrane polyspecificity reagent, FACS + sequencing; frameworks hold sequencing errors
Method in brief: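 Genes from sorted yeast were amplified by colony PCR, read by MiSeq 2 × 250 sequencing and filtered on CDR length. These cells carried a synthetic nanobody library in Saccharomyces cerevisiae BJ5465 and were sorted by FACS into low and high (top ~1%) gates on anti-HA and streptavidin fluorescence. Polyreactivity is labelled according to the gate of origin.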

| Sequence | polyreactivity (PSR sort gate) |
| --- | --- |
| QVQLVESGGGLVQAGGSLRLSCAASGGIFTLNGMGWYRQAPGKERELVAVITSSGGSTYYADSVKGRFTISRDNAKNTVYLQMNSLKPEDTAVYYCAAQLVRYVGYYRFDYWGQGTQVTVSS | low polyreactivity |
| QVQLVESGGGLVQAGGSLRLSCAASGGIFTYYAMGWYRQAPGKERELVAAISASGGSTYYADSVKGRFTISRDNAKNTVYLQMNSLKPEDTAVYYCAAGLPYGYGYDYWGQGTQVTVSS | low polyreactivity |
| QVQLVESGGGLVQAGGSLRLSCAASGGIFTYYVLGWYRQAPGKERELVAAITIGDSTYYADSVKGRFTISRDNAKNTVYVQINSLKPEDTAVYYCNADPYNTWGFTNGYWGQGTQVTVSS | low polyreactivity |
| QVQLVESGGGLVQAGGSLRLSCAASGGIFVTYAMVWYRQAPGKERELVAAITSGGTTYYADSVKGRFTISRDNAKNTVYIQMNSLTPEDTAVYYCAARYYPGYYYPPLDYWGQGSQVTVSS | low polyreactivity |
| QVQLVESGGGLVQAGGSLRLSCAASGGIFWRYAMGWYRQAPGKERELVAAISSRGGSTYYADSVKGRFTISRDNAKNTVYLPMNSLKPEYTAVYYCAAAFLSRVQGYDSWGQGTQVTVSS | high polyreactivity |
| QVQLVESGGGLVQAGGSLRLSCAASGGIFWVNAMGWYRQAPGKERELVAAISWSDDNTYYADSVKGRFTISRDNAKNTVYLQMNSLKPEDTAVYYCAKDFYDYGSFYWYEYWGQGTQVTVSS | high polyreactivity |
| QVQLVESGGGLVQAGGSLRLSCAASGGIFYGYAMGWYRQAPGKERELVAAISDSGGSTYYADSVKGRFTNSRDNAKYTGYVQMNSLKPEVTAVYYCATDAPVGGYVSEGDYWGQGTQVTVSS | low polyreactivity |
| QVQLVESGGGLVQAGGSLRLSCAASGGIFYPNVKGWYRQAPGKEREFVAAISSSSGSTYADSVKGRFTISRDNAKNTVYLQMNSLKPDDTAVFYCAAEENWWGIWVRYDYWVQGTQVTVSS | low polyreactivity |
| QVQLVESGGGLVQAGGSLRLSCAASGGIFYPYAMGWYRQAPGKERELVASIDVSDGSTYYADSVKGRFTISRDNAKNTVYLQMNSLKPEDTAVYYCAADRYSKAIDFEGDYWGQGTQVTVSS | low polyreactivity |
| QVQLVESGGGLVQAGGSLRLSCAASGGIFYRYAMGWYRQAPGKEREFVASIDVSGGSTHYADSVKGRFTISRDNAKNTVDLQMNSLKPEDTAVHYCAARVYWRSSRYYYWGHGTQVTVSS | high polyreactivity |
| QVQLVESGGGLVQAGGSLRLSCAASGGIFYSYAMGWYRQAPGKERELVAAISGRGGSTYYADSVKGRFTISRDNAKNTVYLQMNSLKPEDTAVYYCNALGSQRYDYWGQGTQVTVSS | high polyreactivity |
| QVQLVESGGGLVQAGGSLRLSCAASGGIFYYNAMGWYRQAPGKERELLAAITFSGGGTYYADSVKGRFTISRDNAKNTVYFQMNSLKPEDTAVNYCAAKFYRYAWFLGYDYWGQGTQVTVSS | high polyreactivity |
| QVQLVESGGGLVQAGGSLRLSCAASGGIFYYYTMGWYRQAPGKERELVAVISSSGSTYYADSVKGRFTISRDNAKNTVYLQMNSLKPEDTAVYYCNALGWYGDYDYWGQGTQVTVSS | low polyreactivity |
| QVQLVESGGGLVQAGGSLRLSCAASGGIISMYDIGWYRQAQGKERQLVAAISQSGGSTYYADYVKGRFTISRDNAKNTVYLQMNSLNPEVTGVYYCAADLYLTLIGFIFTGEEYWGQGTQGTVSS | low polyreactivity |
| QVQLVESGGGLVQAGGSLRLSCAASGGILDTYAMGWDRQAPGKERELVAAITSGGNTNYADSVKGRFTISRDNAKNTFYLQMNSLKPEDTAVYFCNVVSWYYFFRPWEYDYWGQGTQVTVSS | low polyreactivity |
| QVQLVESGGGLVQAGGSLRLSCAASGGILRDYAMGWSRQAPGKERELVAAISRGGRTNYADSVKGRFTISRDYSKNTVYLQLNSLKPEDTAVYYCAKRYARGENDYWGQGTQVNVSS | high polyreactivity |

| Sequence | polyreactivity (PSR sort gate) |
| --- | --- |
| QVQLVESGGGLVQAGGSLRLSCAASGGISLYYVMGWYRQAPGKERELVADISADDSTNYADSVKGRFTISRDNAKNTVYLQMNSLKPEDTAVYYCAAVPGLFYLPYDYWGQGTQVTVSS | low polyreactivity |
| QVQLVESGGGLVQAGGSLRLSCAASGGISMDNVMGWYRQAPGKERELVAAISKSGGRTFYADSVKGRFTISRDNAKNTVYLQMNSLKPEDTAVYYCAKLYKSKPYWYEHEYWGQGTQVTVSS | high polyreactivity |
| QVQLVESGGGLVQAGGSLRLSCAASGGISYRYAMGWYRQAPGKERELVARISRGTGTHYADSVKGRFTISRDNAKNTVYLQMNSLTPEDTAVYYCAAESYRGYYLSLNYWGQGTQVTVSS | high polyreactivity |
| QVQLVESGGGLVQAGGSLRLSCAASGGIVSINAMGWYRQAPGKERELVAAIRWNSGRTYYADSVKGRFTISRDNAKNTVYIQMNSLKPEDTAVYYCAVRDYISWEDYYWGQGTQVTVSS | high polyreactivity |
| QVQLVESGGGLVQAGGSLRLSCAASGGIYLDYAMGWYRQAPGKERELVADINSGADTSYADSVKGRFTISRDNAKNTVYLQMNSLKPEDTAVYYCADDIYVFNGQVYSYGYGYWGQGTQVTVSS | low polyreactivity |
| QVQLVESGGGLVQAGGSLRLSCAASGGIYYYAMGWDRQAPGKERELVAAISSGGGNTNYADSVKGRFTISRDNAKNTVYLQMNSLKPVDTAVYYCAAEHPVTYRTSKFDYWGQGTQVTVSS | low polyreactivity |
| QVQLVESGGGLVQAGGSLRLSCAASGGIYYYAMGWYRPAPGKERELVSAISSGGGNTNYADSVKGRFTISRDNAKNTVYLQMISLKPEDTAVYYCYADRAVVLSTTVWGEYDYWGQGTQVNVSS | low polyreactivity |
| QVQLVESGGGLVQAGGSLRLSCAASGGIYYYAMGWYRQAPGKERELVAAISSGGGNTNYADSVKGRFTLSRDNAKNTVYLQMNSLKPEDTAVYYCATDGFIPTYSYTEIGYDYWGQGTQVTVSS | low polyreactivity |
| QVQLVESGGGLVQAGGSLRLSCAASGGLFIRYGMGWYRPAPGKERELVAGIDSGGGTNYADSVKGRFTISRDNAKNTVYLQMNSLKPEDTAVYYCARRQGYGFLYGRPYGYWGQGTQVTVSS | low polyreactivity |
| QVQLVESGGGLVQAGGSLRLSCAASGGMGWYRQAPGKERELVATISSVGSTNYADSVKGRFTISRDNAKNTVYLQMNSLKPEDTAVYYCNATGVQYFLYGYWGQGTQVTVSS | low polyreactivity |
| QVQLVESGGGLVQAGGSLRLSCAASGGNFKQYAMGWYRQAPGKERELVAAISRRGGSTYYADSVKGRFTISRDNAKNTVYLQMNSLKPEDTAVYYCAAPGPTQSTQRGGYWGQGTQVTVSS | high polyreactivity |
| QVQLVESGGGLVQAGGSLRLSCAASGGPFKRNAMGWSRQAPGKERELVAAISTSGATTYYADSVKGRFTISRDTAKNTVYLQMNSLKPEDTAVYYCAARIRGYVYKGMNYWGQGTQVTVSS | high polyreactivity |
| QVQLVESGGGLVQAGGSLRLSCAASGGPFTYYTMGCYRQAPGKERELVAAISTGGRTYYADSVKGRFTISRDNAKNTVYLQMNCLKAEATAVYYCYPLYDETDVLGEFDYWGQGTQVTVSS | low polyreactivity |
| QVQLVESGGGLVQAGGSLRLSCAASGGPFWYYAMGWYRQAPGKERELVAAITRGGSTSYADSVKGRFTISRDNAKKTVYLQMNSLKPEDTAVYYCNARPYSSYWRYNYWGQGTQVTVSS | high polyreactivity |
| QVQLVESGGGLVQAGGSLRLSCAASGGTCSFYTMGWYRQAPGKERELVAAISRSGGRTYYADSVKGRFTISRDNAQNTVYLQMNSLKPEDTAVYYCAAERFSNIYTTMGYWGQGTQVTVSS | high polyreactivity |
| QVQLVESGGGLVQAGGSLRLSCAASGGTFAANDMGWYRQAPGKEREFVAAIDWSGGSTYYADSVKGRFTISRDNAKNTVYLQMNSLKPVDTAVYYCNAGPAVRSAYSTPYYDYWGQGTQVTVSS | low polyreactivity |

From the nanobody polyreactivity screen of Harvey et al. (2022)
